Measurements published in PMC7867654.

Tests used:
Assay in all cases: EMSA
[1] = molecular target: PRC2-AEBP2 (PRC2.2, 5-mer) (Homo sapiens, UniProt Q15910-2;O75530;Q15022;Q09028;Q6ZN18 1-751;1-441;1-739;1-425;1-517)
[2] = molecular target: T1, PRC2-PHF19 (PRC2.1, 5-mer) (Homo sapiens, UniProt Q15910-2;O75530;Q15022;Q09028;Q5T6S3 1-751;1-441;1-739;1-425;1-580)
[3] = molecular target: T1, PRC2-PHF19 (PRC2.1, 5-mer); remark: listed apart in the source

Binder | binding result [1] | binding signal [2] | binding result [3]
36 bp LHX6 (dsDNA) DNA 1: TCCGCCCGCTCGACGCGCGCCGGGAAATTGAAGCGG DNA 2: CCGCTTCAATTTCCCGGCGCGCGTCGAGCGGGCGGA | no binding |  | 
24 bp LHX6 (dsDNA) DNA 1: ACGCGCGCCGGGAAATTGAAGCGG DNA 2: CCGCTTCAATTTCCCGGCGCGCGT | no binding | ~5 fold tighter than 24 bp ATrich; weaker than 48 bp | 
36 bp ATrich (dsDNA) DNA 1: TATATAAATTAATATATAATTATATTATATTAAAAT DNA 2: ATTTTAATATAATATAATTATATATTAATTTATATA | no binding |  | 
24 bp ATrich (dsDNA) DNA 1: TATATAATTATATTATATTAAAAT DNA 2: ATTTTAATATAATATAATTATATA | no binding | ~5 fold weaker than 24 bp LHX6 | 
96 bp ATrich (dsDNA) DNA 1: TATATTTTATATATATATAAATTAATATATAATTATATTATATTAAAATTAATATTATATTTAAATTATTATATATATATAAATAATTTAATTATA DNA 2: TATAATTAAATTATTTATATATATATAATAATTTAAATATAATATTAATTTTAATATAATATAATTATATATTAATTTATATATATATAAAATATA |  |  | binds
96 bp (dsDNA) DNA 1: TGAATTAGTGTCAATATCCCTACTTCAATTTCCTAGTATATATTAAGTAGGTAGATGCTCCTAGTACTCTGGGTTTTATTTTCTCAACCACCACCA DNA 2: TGGTGGTGGTTGAGAAAATAAAACCCAGAGTACTAGGAGCATCTACCTACTTAATATATACTAGGAAATTGAAGTAGGGATATTGACACTAATTCA |  |  | binds
12 bp GC (dsDNA) DNA 1: GGGCGGCCGCCC DNA 2: GGGCGGCCGCCC |  |  | no binding
48 bp ATrich (dsDNA) DNA 1: ATATTTTATATATATATAAATTAATATATAATTATATTATATTAAAAT DNA 2: ATTTTAATATAATATAATTATATATTAATTTATATATATATAAAATAT | no binding |  | 
48 bp LHX6 (dsDNA) DNA 1: GCGCTAGGAGCATCCGCCCGCTCGACGCGCGCCGGGAAATTGAAGCGG DNA 2: CCGCTTCAATTTCCCGGCGCGCGTCGAGCGGGCGGATGCTCCTAGCGC | no binding |  | 
